This experiment concerns the target T1, RBD mouse Fc-tagged antigen (Sino Biological, Cat. No. 40592-V05H) (SARS-CoV-2, UniProt P0DTC2).
T1 construct: source: bought: Sino Biological
Put plainly: ELISA. The settings on record: both partners purified. On the technique in general: In an ELISA, binding on a coated surface is turned into a signal by an enzyme label.

B1: S304 IgG (antibody, V domains shown)
VH: EVQLVESGGGLVQPGGSLRLSCAASGFTFSSYDMHWVRQTTGKGLEWVSTIGTAGDTYYPDSVKGRFTISREDAKNSLYLQMNSLRAGDTAVYYCARGDSSGYYYYFDYWGQGTLLTVSS
VL: DIQMTQSPSSLSAAVGDRVTITCRASQSIGSYLNWYQQKPGKAPKLLIYAASSLQSGVPSRFSGSGSGTDFTLTISSLQPEDFAIYYCQQSYVSPTYTFGPGTKVDIK
notes: copies: 2 + 2
In the case of B1, the binding result was “binds”.
